Test results published in IntAct's records for PubMed 29892012.

B1: Atos homolog protein B (Homo sapiens), Q7L5A3 (parent)
chain: MRHVQAEPSPSSEPEAGPSQPPVRQGALQGGLLMGYSPAGGATSPGVYQVSIFSPPAGTSEPHRALKRQAPSTEGPRELKRGPGLGAREGLPPEEPSTVGLLGPEGPGLGLGVASQHFSHRGLCVVEQRSSVTSSWTSGAWSPPCPPSNASCNTLHTRDWASPDPGGQGSLGESPGPAPPGQLHTLDTDLHSLAQIGGKSPVAGVGNGGSLWPRESPGTANGHSPEHTPPGPGPPGPCPTKRRLLPAGEAPDVSSEEEGPAPRRRRGSLGHPTAANSSDAKATPFWSHLLPGPKEPVLDPTDCGPMGRRLKGARRLKLSPLRSLRKGPGLLSPPSASPVPTPAVSRTLLGNFEESLLRGRFAPSGHIEGFTAEIGASGSYCPQHVTLPVTVTFFDVSEQNAPAPFLGIVDLNPLGRKGYSVPKVGTVQVTLFNPNQTVVKMFLVTFDFSDMPAAHMTFLRHRLFLVPVGEEGNANPTHRLLCYLLHLRFRSSRSGRLSLHGDIRLLFSRRSLELDTGLPYELQAVTEAPHNPRYSPLP
partner: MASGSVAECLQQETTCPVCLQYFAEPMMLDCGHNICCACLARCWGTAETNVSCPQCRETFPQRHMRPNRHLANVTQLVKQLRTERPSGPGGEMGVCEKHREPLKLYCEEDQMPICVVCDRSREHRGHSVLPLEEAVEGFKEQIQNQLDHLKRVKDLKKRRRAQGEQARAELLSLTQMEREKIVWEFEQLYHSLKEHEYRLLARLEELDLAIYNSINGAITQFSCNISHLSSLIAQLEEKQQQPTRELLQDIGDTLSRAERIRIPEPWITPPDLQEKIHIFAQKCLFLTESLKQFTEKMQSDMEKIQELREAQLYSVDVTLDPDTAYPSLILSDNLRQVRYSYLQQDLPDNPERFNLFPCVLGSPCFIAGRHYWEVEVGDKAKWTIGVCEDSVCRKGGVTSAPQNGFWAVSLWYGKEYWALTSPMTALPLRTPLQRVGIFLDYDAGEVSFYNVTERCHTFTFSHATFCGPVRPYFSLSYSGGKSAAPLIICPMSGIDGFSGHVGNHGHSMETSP
B2: Glutaredoxin-3 (Homo sapiens), O76003 (parent)
chain: MAAGAAEAAVAAVEEVGSAGQFEELLRLKAKSLLVVHFWAPWAPQCAQMNEVMAELAKELPQVSFVKLEAEGVPEVSEKYEISSVPTFLFFKNSQKIDRLDGAHAPELTKKVQRHASSGSFLPSANEHLKEDLNLRLKKLTHAAPCMLFMKGTPQEPRCGFSKQMVEILHKHNIQFSSFDIFSDEEVRQGLKAYSSWPTYPQLYVSGELIGGLDIIKELEASEELDTICPKAPKLEERLKVLTNKASVMLFMKGNKQEAKCGFSKQILEILNSTGVEYETFDILEDEEVRQGLKAYSNWPTYPQLYVKGELVGGLDIVKELKENGELLPILRGEN
partner: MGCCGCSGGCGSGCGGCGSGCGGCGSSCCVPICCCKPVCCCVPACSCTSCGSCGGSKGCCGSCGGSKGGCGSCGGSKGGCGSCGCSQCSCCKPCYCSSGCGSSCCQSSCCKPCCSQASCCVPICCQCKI
B3: Ligand of Numb protein X 2 (Homo sapiens), Q8N448 (parent)
chain: MGTTSDEMVSVEQTSSSSLNPLCFECGQQHWTRENHLYNYQNEVDDDLVCHICLQPLLQPLDTPCGHTFCYKCLRNFLQEKDFCPLDRKRLHFKLCKKSSILVHKLLDKLLVLCPFSSVCKDVMQRCDLEAHLKNRCPGASHRRVALERRKTSRTQAEIENENGPTLLDPAGTLSPEADCLGTGAVPVERHLTSASLSTWSEEPGLDNPAFEESAGADTTQQPLSLPEGEITTIEIHRSNPYIQLGISIVGGNETPLINIVIQEVYRDGVIARDGRLLAGDQILQVNNYNISNVSHNYARAVLSQPCNTLHLTVLRERRFGNRAHNHSDSNSPREEIFQVALHKRDSGEQLGIKLVRRTDEPGVFILDLLEGGLAAQDGRLSSNDRVLAINGHDLKYGTPELAAQIIQASGERVNLTIARPGKPQPGNTIREAGNHSSSSQHHTPPPYYSRPSSHKDLTQCVTCQEKHITVKKEPHESLGMTVAGGRGSKSGELPIFVTSVPPHGCLARDGRIKRGDVLLNINGIDLTNLSHSEAVAMLKASAASPAVALKALEVQIVEEATQNAEEQPSTFSENEYDASWSPSWVMWLGLPSTLHSCHDIVLRRSYLGSWGFSIVGGYEENHTNQPFFIKTIVLGTPAYYDGRLKCGDMIVAVNGLSTVGMSHSALVPMLKEQRNKVTLTVICWPGSLV
partner: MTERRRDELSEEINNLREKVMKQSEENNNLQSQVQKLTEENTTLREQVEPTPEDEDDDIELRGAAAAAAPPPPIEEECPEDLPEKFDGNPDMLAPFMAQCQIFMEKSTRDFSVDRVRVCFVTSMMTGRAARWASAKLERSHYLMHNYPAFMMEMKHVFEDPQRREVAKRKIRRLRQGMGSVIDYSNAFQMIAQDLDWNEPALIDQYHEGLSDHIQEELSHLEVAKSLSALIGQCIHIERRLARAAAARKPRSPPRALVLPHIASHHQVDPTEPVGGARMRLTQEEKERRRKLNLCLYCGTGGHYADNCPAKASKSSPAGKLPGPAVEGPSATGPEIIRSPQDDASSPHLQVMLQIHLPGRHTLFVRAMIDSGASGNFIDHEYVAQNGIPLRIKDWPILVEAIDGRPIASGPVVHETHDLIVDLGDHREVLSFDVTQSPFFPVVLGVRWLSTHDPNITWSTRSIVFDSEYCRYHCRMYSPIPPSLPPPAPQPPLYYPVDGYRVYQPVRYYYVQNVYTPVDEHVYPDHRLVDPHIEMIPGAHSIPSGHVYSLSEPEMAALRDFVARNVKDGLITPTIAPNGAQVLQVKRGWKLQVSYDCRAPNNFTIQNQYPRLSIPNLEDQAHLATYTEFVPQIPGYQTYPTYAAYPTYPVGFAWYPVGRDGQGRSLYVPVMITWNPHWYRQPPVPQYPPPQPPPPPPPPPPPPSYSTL
B4: Multifunctional procollagen lysine hydroxylase and glycosyltransferase LH3 (Homo sapiens), O60568 (parent)
chain: MTSSGPGPRFLLLLPLLLPPAASASDRPRGRDPVNPEKLLVITVATAETEGYLRFLRSAEFFNYTVRTLGLGEEWRGGDVARTVGGGQKVRWLKKEMEKYADREDMIIMFVDSYDVILAGSPTELLKKFVQSGSRLLFSAESFCWPEWGLAEQYPEVGTGKRFLNSGGFIGFATTIHQIVRQWKYKDDDDDQLFYTRLYLDPGLREKLSLNLDHKSRIFQNLNGALDEVVLKFDRNRVRIRNVAYDTLPIVVHGNGPTKLQLNYLGNYVPNGWTPEGGCGFCNQDRRTLPGGQPPPRVFLAVFVEQPTPFLPRFLQRLLLLDYPPDRVTLFLHNNEVFHEPHIADSWPQLQDHFSAVKLVGPEEALSPGEARDMAMDLCRQDPECEFYFSLDADAVLTNLQTLRILIEENRKVIAPMLSRHGKLWSNFWGALSPDEYYARSEDYVELVQRKRVGVWNVPYISQAYVIRGDTLRMELPQRDVFSGSDTDPDMAFCKSFRDKGIFLHLSNQHEFGRLLATSRYDTEHLHPDLWQIFDNPVDWKEQYIHENYSRALEGEGIVEQPCPDVYWFPLLSEQMCDELVAEMEHYGQWSGGRHEDSRLAGGYENVPTVDIHMKQVGYEDQWLQLLRTYVGPMTESLFPGYHTKARAVMNFVVRYRPDEQPSLRPHHDSSTFTLNVALNHKGLDYEGGGCRFLRYDCVISSPRKGWALLHPGRLTHYHEGLPTTWGTRYIMVSFVDP
partner: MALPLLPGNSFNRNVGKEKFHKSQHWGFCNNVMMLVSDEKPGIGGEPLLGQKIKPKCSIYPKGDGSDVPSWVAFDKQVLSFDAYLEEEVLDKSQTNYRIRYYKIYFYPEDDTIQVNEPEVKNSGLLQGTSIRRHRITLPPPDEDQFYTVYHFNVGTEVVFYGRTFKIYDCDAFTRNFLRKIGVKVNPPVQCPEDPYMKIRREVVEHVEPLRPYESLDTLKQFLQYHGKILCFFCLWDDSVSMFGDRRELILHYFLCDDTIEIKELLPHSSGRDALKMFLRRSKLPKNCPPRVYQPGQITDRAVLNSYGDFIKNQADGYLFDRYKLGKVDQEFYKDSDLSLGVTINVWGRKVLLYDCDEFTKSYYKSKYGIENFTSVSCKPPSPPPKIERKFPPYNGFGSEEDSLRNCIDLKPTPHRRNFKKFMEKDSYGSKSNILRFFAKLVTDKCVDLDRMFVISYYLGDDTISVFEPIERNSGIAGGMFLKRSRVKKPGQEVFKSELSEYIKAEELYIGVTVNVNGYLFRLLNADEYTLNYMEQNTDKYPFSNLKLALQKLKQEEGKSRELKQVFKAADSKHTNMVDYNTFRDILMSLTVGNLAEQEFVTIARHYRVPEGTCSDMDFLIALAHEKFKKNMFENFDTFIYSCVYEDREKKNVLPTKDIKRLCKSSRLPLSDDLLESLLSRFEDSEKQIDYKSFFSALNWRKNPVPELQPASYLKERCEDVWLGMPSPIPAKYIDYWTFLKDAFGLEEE
B5: Alpha-ketoglutarate-dependent dioxygenase alkB homolog 3 (Homo sapiens), Q96Q83 (parent)
chain: MEEKRRRARVQGAWAAPVKSQAIAQPATTAKSHLHQKPGQTWKNKEHHLSDREFVFKEPQQVVRRAPEPRVIDREGVYEISLSPTGVSRVCLYPGFVDVKEADWILEQLCQDVPWKQRTGIREDITYQQPRLTAWYGELPYTYSRITMEPNPHWHPVLRTLKNRIEENTGHTFNSLLCNLYRNEKDSVDWHSDDEPSLGRCPIIASLSFGATRTFEMRKKPPPEENGDYTYVERVKIPLDHGTLLIMEGATQADWQHRVPKEYHSREPRVNLTFRTVYPDPRGAPW
B6: Glutaredoxin-3 (Homo sapiens), O76003 (parent)
chain: B2 chain
B7: Ribosome assembly protein METTL17, mitochondrial (Homo sapiens), Q9H7H0 (parent)
chain: MAAALKCLLTLGRWCPGLGVAPQARALAALVPGVTQVDNKSGFLQKRPHRQHPGILKLPHVRLPQALANGAQLLLLGSAGPTMENQVQTLTSYLWSRHLPVEPEELQRRARHLEKKFLENPDLSQTEEKLRGAVLHALRKTTYHWQELSYTEGLSLVYMAARLDGGFAAVSRAFHEIRARNPAFQPQTLMDFGSGTGSVTWAAHSIWGQSLREYMCVDRSAAMLVLAEKLLKGGSESGEPYIPGVFFRQFLPVSPKVQFDVVVSAFSLSELPSKADRTEVVQTLWRKTGHFLVLVENGTKAGHSLLMDARDLVLKGKEKSPLDPRPGFVFAPCPHELPCPQLTNLACSFSQAYHPIPFSWNKKPKEEKFSMVILARGSPEEAHRWPRITQPVLKRPRHVHCHLCCPDGHMQHAVLTARRHGRDLYRCARVSSWGDLLPVLTPSAFPPSTAQDPSES
partner: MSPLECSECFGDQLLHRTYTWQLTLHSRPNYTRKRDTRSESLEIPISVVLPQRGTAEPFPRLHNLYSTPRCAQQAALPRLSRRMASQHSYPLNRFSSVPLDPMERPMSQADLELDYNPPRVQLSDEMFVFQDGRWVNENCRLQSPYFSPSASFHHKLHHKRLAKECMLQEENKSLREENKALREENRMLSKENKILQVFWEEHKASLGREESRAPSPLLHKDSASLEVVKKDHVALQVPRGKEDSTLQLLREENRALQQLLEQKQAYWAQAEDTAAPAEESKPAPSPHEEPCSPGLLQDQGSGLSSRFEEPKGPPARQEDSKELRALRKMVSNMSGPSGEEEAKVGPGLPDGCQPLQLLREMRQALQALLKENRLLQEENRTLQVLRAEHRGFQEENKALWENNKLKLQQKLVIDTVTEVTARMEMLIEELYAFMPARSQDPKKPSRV
B8: Glutaredoxin-3 (Homo sapiens), O76003 (parent)
chain: B2 chain
partner: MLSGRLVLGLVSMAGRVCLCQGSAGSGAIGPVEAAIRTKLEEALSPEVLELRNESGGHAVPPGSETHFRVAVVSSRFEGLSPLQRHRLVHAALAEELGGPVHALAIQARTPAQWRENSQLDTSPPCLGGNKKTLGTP

Variants of: B1
Settings: with tri27_human TRIM27, P14373

Row | effect of a mutation on the interaction | Variant
1 | disrupting interaction strength | C381Y

Variants of: B2
Settings: with kra56_human KRTAP5-6, Q6L8G9

Row | effect of a mutation on the interaction | Variant
2 | with no effect | P145A

Variants of: B3
Settings: with peg10_human PEG10, Q86TG7

Row | effect of a mutation on the interaction | Variant
3 | with no effect | P669A

Variants of: B4
Settings: with efhc2_human EFHC2, Q5JST6

Row | effect of a mutation on the interaction | Variant
4 | with no effect | R235Q

Variants of: B5
Settings: with ikzf1_human IKZF1, Q13422
ikzf1_human IKZF1, Q13422, sequence (Q13422 whole entry): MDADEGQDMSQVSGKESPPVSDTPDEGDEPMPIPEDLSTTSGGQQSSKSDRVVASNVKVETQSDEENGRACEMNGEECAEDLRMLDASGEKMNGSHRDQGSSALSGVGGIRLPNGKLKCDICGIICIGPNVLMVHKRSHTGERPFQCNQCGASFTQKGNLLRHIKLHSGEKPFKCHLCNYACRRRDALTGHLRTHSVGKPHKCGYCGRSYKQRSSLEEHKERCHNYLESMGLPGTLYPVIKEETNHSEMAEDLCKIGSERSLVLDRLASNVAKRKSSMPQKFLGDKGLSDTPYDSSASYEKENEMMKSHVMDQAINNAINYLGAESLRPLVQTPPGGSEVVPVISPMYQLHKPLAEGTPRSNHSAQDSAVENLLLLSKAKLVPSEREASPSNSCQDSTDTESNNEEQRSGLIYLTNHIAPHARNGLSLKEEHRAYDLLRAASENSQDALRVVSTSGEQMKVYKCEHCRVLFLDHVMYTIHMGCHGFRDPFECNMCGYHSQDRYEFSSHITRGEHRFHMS

Row | effect of a mutation on the interaction | Variant
5 | with no effect | R64H

Variants of: B6
Settings: with grn_human GRN

Row | effect of a mutation on the interaction | Variant
6 | with no effect | P145A

Variants of: B6
Settings: with cpin1_human CIAPIN1, Q6FI81
cpin1_human CIAPIN1, Q6FI81, sequence (Q6FI81 whole entry): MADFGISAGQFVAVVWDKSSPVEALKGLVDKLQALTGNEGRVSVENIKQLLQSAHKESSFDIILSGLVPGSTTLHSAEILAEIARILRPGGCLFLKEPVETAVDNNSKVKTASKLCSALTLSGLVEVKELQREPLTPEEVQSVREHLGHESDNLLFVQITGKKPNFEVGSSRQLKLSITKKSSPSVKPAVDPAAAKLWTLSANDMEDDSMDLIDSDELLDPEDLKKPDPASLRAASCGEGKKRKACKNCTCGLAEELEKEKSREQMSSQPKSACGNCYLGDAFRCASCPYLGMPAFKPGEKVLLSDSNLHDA

Row | effect of a mutation on the interaction | Variant
7 | with no effect | P145A

Variants of: B6
Settings: with tmm25_human TMEM25, Q86YD3
tmm25_human TMEM25, Q86YD3, sequence (Q86YD3 whole entry): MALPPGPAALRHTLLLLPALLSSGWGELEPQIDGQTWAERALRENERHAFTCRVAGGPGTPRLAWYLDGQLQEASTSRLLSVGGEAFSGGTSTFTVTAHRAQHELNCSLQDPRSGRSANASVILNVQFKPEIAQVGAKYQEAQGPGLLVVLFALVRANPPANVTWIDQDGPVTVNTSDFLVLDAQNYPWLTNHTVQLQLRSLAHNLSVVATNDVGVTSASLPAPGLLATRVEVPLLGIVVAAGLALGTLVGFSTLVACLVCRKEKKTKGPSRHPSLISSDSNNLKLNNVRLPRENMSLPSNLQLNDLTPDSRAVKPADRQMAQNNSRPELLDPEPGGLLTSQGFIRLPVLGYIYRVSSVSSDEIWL

Row | effect of a mutation on the interaction | Variant
8 | with no effect | P145A

Variants of: B7
Settings: with cby2_human CBY2, Q8NA61

Row | effect of a mutation on the interaction | Variant
9 | with no effect | R212H

Variants of: B8
Settings: with bola1_human BOLA1, Q9Y3E2

Row | effect of a mutation on the interaction | Variant
10 | with no effect | P145A
